Laboratory results: patent publication US20240200091A1, “USE OF PROTOPORPHYRINOGEN OXIDASE” (BEIJING DABEINONG BIOTECHNOLOGY CO., LTD., priority 2021, published 2024)

Experiments:
Type in all cases: in vivo
[1] = system: transgenic soybean plants; experiment: saflufenacil tolerance of transgenic soybean plants (spray, grade of pesticide damage); set-up: key to damage levels rated at grade: grade 0 means that the growth status of plants is essentially consistent with those sprayed with the blank solvent (water); grade 1 means that the average of the damage levels of plants is less than 10%; grade 2 means that the average of the damage levels of plants is greater than 100%; grade 3 means that the average of the damage levels of plants is 100%; details: for The grade of pesticide damage/plant: grade 0 / The grade of pesticide damage/plant: grade 1 / The grade of pesticide damage/plant: grade 2 / The grade of pesticide damage/plant: grade 3: 7 DAT, number of plants of 16 per genotype, grades
[2] = system: Arabidopsis thaliana T1 plants; experiment: oxyfluorfen tolerance of transgenic Arabidopsis thaliana T1 plants (spray, grade of pesticide damage); details: 7 DAT, number of plants of 24 per genotype, grades
Outline: (§1)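 Herbicide rates in g ai/ha are as follows: oxyfluorfen 180 or 720, saflufenacil 25 or 100, flumioxazin 60 or 240, sulfentrazone 450 or 900, each against a water control. Sprays go onto PPO-transgenic T1 plants at 18 days. At 7 DAT, leaf-area injury is graded 0–3, with grades 0–1 counted as highly resistant.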

[3] = system: Arabidopsis thaliana T1 plants; experiment: saflufenacil tolerance of transgenic Arabidopsis thaliana T1 plants (spray, grade of pesticide damage); details: 7 DAT, number of plants of 24 per genotype, grades
Outline: as §1

[4] = system: Arabidopsis thaliana T1 plants; experiment: sulfentrazone tolerance of transgenic Arabidopsis thaliana T1 plants (spray, grade of pesticide damage); details: 7 DAT, number of plants of 24 per genotype, grades
Outline: as §1

[5] = system: transgenic soybean plants; experiment: oxyfluorfen tolerance of transgenic soybean plants (spray, grade of pesticide damage); details: for The grade of pesticide damage/plant: grade 0 / The grade of pesticide damage/plant: grade 1 / The grade of pesticide damage/plant: grade 2 / The grade of pesticide damage/plant: grade 3: 7 DAT, number of plants of 16 per genotype, grades; for tolerance to oxyfluorfen: soybean
[6] = system: transgenic soybean plants; experiment: flumioxazin tolerance of transgenic soybean plants (spray, grade of pesticide damage); details: for The grade of pesticide damage/plant: grade 0 / The grade of pesticide damage/plant: grade 1 / The grade of pesticide damage/plant: grade 2 / The grade of pesticide damage/plant: grade 3: 7 DAT, number of plants of 16 per genotype, grades
[7] = system: Arabidopsis thaliana T1 plants; experiment: flumioxazin tolerance of transgenic Arabidopsis thaliana T1 plants (spray, grade of pesticide damage); details: 7 DAT, number of plants of 24 per genotype, grades
Outline: as §1

B1: PPO6A: nucleotide sequence encoding microbial protoporphyrinogen oxidase PPO6 (SEQ ID NO:6), Arabidopsis thaliana/soybean common codon usage bias (nucleic acid)
DNA: ATGTCTTCTCCTAATGGGAAGTATTTGATGCTTTACAGTACCACCGACGGTCACACAAAAACCATTATGGATACAATGGCTAAACATATAATGGAAGAAGCAAAAGTACAATGTGATGTTGTGGACATGAGAGATGGAGACAAATACGAGTTAGCTGCTTATGAGAAGGTGATGCTAGGAGCTTCTATTAGATATGGATTCTTCAGCCGCACTCTTCATACATATACCACTCATCATGTTGATGAACTTAACTCAATGCCTTCCGCTTTCTTTGGAGTCAATCTCACTGCTCGTAAAACTTCAAAGAACACTGCAATGACTAATGCATACACAAGAAAGTTTCTGGATCAATCCATGTGGGTTCCTCAATTATCTGGCGTTTTTGCTGGTGCTTTGTGGTATCCTAGGTACAATTTCTTTGACAGGGTTATGATTCAGTTCATCATGAAGGTAACTGGTGGTGAAACAAACACAACGAAAGAGATAGTTTACACTGATTGGGATGCTGTTCACAAATTTGCAACAGATTTTGTGCAGCTACCAGCCACGGCGATACCCCGGAGCAAGCCGGCGACGTCGGTCCCACCAGCTAGTGTGGCCAACTATGATAATGGGGCACGAGTAGCGCTTGTGGTTGTGGGAATCTCAGCAGCCATCATCTTTGGCCGTCGATTGATTCTCGCAAAGAGATTCTGA
modifications: The nucleotide sequence of PPO6A
4 plant: The grade of pesticide damage/plant: grade 1 ([2]; oxyfluorfen 720 g ai/ha (4×))
0: damage levels rated at grade ([1]; soybean, saflufenacil at two-fold field concentration (50 g ai/ha)) | The grade of pesticide: grade 1 ([4]; sulfentrazone 450 g ai/ha (1×)) | The grade of pesticide: grade 2 ([4]; sulfentrazone 450 g ai/ha (1×)) | The grade of pesticide: grade 3 ([4]; sulfentrazone 450 g ai/ha (1×)) | The grade of pesticide: grade 2 ([4]; sulfentrazone 900 g ai/ha (2×)) | The grade of pesticide: grade 3 ([4]; sulfentrazone 900 g ai/ha (2×))
16 plant: The grade of pesticide damage/plant: grade 0 ([1]; saflufenacil 50 g ai/ha (2×)) | The grade of pesticide damage/plant: grade 0 ([1]; saflufenacil 100 g ai/ha (4×)) | The grade of pesticide damage/plant: grade 0 ([5]; oxyfluorfen 360 g ai/ha (2×)) | The grade of pesticide damage/plant: grade 0 ([5]; oxyfluorfen 720 g ai/ha (4×)) | The grade of pesticide damage/plant: grade 0 ([6]; flumioxazin 120 g ai/ha (2×)) | The grade of pesticide damage/plant: grade 0 ([6]; flumioxazin 240 g ai/ha (4×))
20 plant: The grade of pesticide damage/plant: grade 0 ([2]; oxyfluorfen 720 g ai/ha (4×))
2 plant: The grade of pesticide damage/plant: grade 0 ([3]; saflufenacil 100 g ai/ha (4×)) | The grade of pesticide damage/plant: grade 1 ([7]; flumioxazin 240 g ai/ha (4×))
24: The grade of pesticide: grade 0 ([4]; sulfentrazone 450 g ai/ha (1×))
22 plant: The grade of pesticide damage/plant: grade 1 ([3]; saflufenacil 100 g ai/ha (4×)) | The grade of pesticide damage/plant: grade 0 ([7]; flumioxazin 240 g ai/ha (4×))
different extents of tolerance: tolerance to saflufenacil ([1]; soybean, saflufenacil, compared with the control vector and CK)
0 plant: The grade of pesticide damage/plant: grade 1 ([1]; saflufenacil 50 g ai/ha (2×)) | The grade of pesticide damage/plant: grade 2 ([1]; saflufenacil 50 g ai/ha (2×)) | The grade of pesticide damage/plant: grade 3 ([1]; saflufenacil 50 g ai/ha (2×)) | The grade of pesticide damage/plant: grade 1 ([1]; saflufenacil 100 g ai/ha (4×)) | The grade of pesticide damage/plant: grade 2 ([1]; saflufenacil 100 g ai/ha (4×)) | The grade of pesticide damage/plant: grade 3 ([1]; saflufenacil 100 g ai/ha (4×)) | The grade of pesticide damage/plant: grade 1 ([2]; oxyfluorfen 180 g ai/ha (1×)) | The grade of pesticide damage/plant: grade 2 ([2]; oxyfluorfen 180 g ai/ha (1×)) | The grade of pesticide damage/plant: grade 3 ([2]; oxyfluorfen 180 g ai/ha (1×)) | The grade of pesticide damage/plant: grade 2 ([2]; oxyfluorfen 720 g ai/ha (4×)) | The grade of pesticide damage/plant: grade 3 ([2]; oxyfluorfen 720 g ai/ha (4×)) | The grade of pesticide damage/plant: grade 1 ([3]; saflufenacil 25 g ai/ha (1×)) | The grade of pesticide damage/plant: grade 2 ([3]; saflufenacil 25 g ai/ha (1×)) | The grade of pesticide damage/plant: grade 3 ([3]; saflufenacil 25 g ai/ha (1×)) | The grade of pesticide damage/plant: grade 2 ([3]; saflufenacil 100 g ai/ha (4×)) | The grade of pesticide damage/plant: grade 3 ([3]; saflufenacil 100 g ai/ha (4×)) | The grade of pesticide damage/plant: grade 1 ([5]; oxyfluorfen 360 g ai/ha (2×)) | The grade of pesticide damage/plant: grade 2 ([5]; oxyfluorfen 360 g ai/ha (2×)) | The grade of pesticide damage/plant: grade 3 ([5]; oxyfluorfen 360 g ai/ha (2×)) | The grade of pesticide damage/plant: grade 1 ([5]; oxyfluorfen 720 g ai/ha (4×)) | The grade of pesticide damage/plant: grade 2 ([5]; oxyfluorfen 720 g ai/ha (4×)) | The grade of pesticide damage/plant: grade 3 ([5]; oxyfluorfen 720 g ai/ha (4×)) | The grade of pesticide damage/plant: grade 1 ([6]; flumioxazin 120 g ai/ha (2×)) | The grade of pesticide damage/plant: grade 2 ([6]; flumioxazin 120 g ai/ha (2×)) | The grade of pesticide damage/plant: grade 3 ([6]; flumioxazin 120 g ai/ha (2×)) | The grade of pesticide damage/plant: grade 1 ([6]; flumioxazin 240 g ai/ha (4×)) | The grade of pesticide damage/plant: grade 2 ([6]; flumioxazin 240 g ai/ha (4×)) | The grade of pesticide damage/plant: grade 3 ([6]; flumioxazin 240 g ai/ha (4×)) | The grade of pesticide damage/plant: grade 1 ([7]; flumioxazin 60 g ai/ha (1×)) | The grade of pesticide damage/plant: grade 2 ([7]; flumioxazin 60 g ai/ha (1×)) | The grade of pesticide damage/plant: grade 3 ([7]; flumioxazin 60 g ai/ha (1×)) | The grade of pesticide damage/plant: grade 2 ([7]; flumioxazin 240 g ai/ha (4×)) | The grade of pesticide damage/plant: grade 3 ([7]; flumioxazin 240 g ai/ha (4×))
20: The grade of pesticide: grade 0 ([4]; sulfentrazone 900 g ai/ha (2×))
4: The grade of pesticide: grade 1 ([4]; sulfentrazone 900 g ai/ha (2×))
24 plant: The grade of pesticide damage/plant: grade 0 ([2]; oxyfluorfen 180 g ai/ha (1×)) | The grade of pesticide damage/plant: grade 0 ([3]; saflufenacil 25 g ai/ha (1×)) | The grade of pesticide damage/plant: grade 0 ([7]; flumioxazin 60 g ai/ha (1×))
high-resistant tolerance: tolerance to saflufenacil ([1]; soybean, saflufenacil at four-fold field concentration (100 g ai/ha)) | tolerance to oxyfluorfen ([5]; oxyfluorfen at four-fold field concentration (720 g ai/ha)) | tolerance to oxyfluorfen ([5]; oxyfluorfen at two-fold field concentration (360 g ai/ha)) | tolerance to flumioxazin ([6]; soybean, flumioxazin at different concentrations (120 and 240 g ai/ha))
